Data on 125 sequences can be found in the supplement of paper PMC9112550, “Optimization of the antimicrobial peptide Bac7 by deep mutational scanning” (BMC Biology, 2022).
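Also: peptides expressed intracellularly from a pBAD plasmid library in pooled LB shake-flask culture, induced with 0.3% L-arabinose, DNA abundance read by NGS, three biological replicates, DESeq2 with apeglm shrinkage.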

For the data set, the system named is Escherichia coli TOP10. In words: shrunken log2 fold change of peptide-encoding DNA abundance (4.5 h post-induction vs induction); higher = less antimicrobial activity (less host growth inhibition). To be noted: time post-induction: 4.5 h; library: site-saturation at positions 5, 18, 19, 20.
For RRIRIRPPRLPRPRPRPWQKPRP, the “shrunken log2 fold change” value stood at 0.0223.

Regarding RRIRGRPPRLPRPRPRPEECPRP, the “shrunken log2 fold change” value is 0.0881.

For the sequence RRIRIRPPRLPRPRPRPDPFPRP, the “shrunken log2 fold change” value is 0.261.

Turning to RRIRGRPPRLPRPRPRPDCYPRP, the “shrunken log2 fold change” value worked out at 0.191.

With RRIRFRPPRLPRPRPRPECLPRP, the “shrunken log2 fold change” value is -0.0562.

In the case of RRIRSRPPRLPRPRPRPYWGPRP, the “shrunken log2 fold change” value was -0.0576.

Turning to RRIRIRPPRLPRPRPRPITYPRP, the “shrunken log2 fold change” value is -0.323.

Consider RRIRTRPPRLPRPRPRPYEAPRP, for which the “shrunken log2 fold change” value is -0.966.

Consider RRIRYRPPRLPRPRPRPCHKPRP, for which the “shrunken log2 fold change” value was -0.821.

For RRIRDRPPRLPRPRPRPRVFPRP, the “shrunken log2 fold change” value amounted to 0.485.

Take RRIRVRPPRLPRPRPRPWVHPRP: the “shrunken log2 fold change” value is -0.306.

Turning to RRIRGRPPRLPRPRPRPGTCPRP, the “shrunken log2 fold change” value is 0.165.

With RRIRVRPPRLPRPRPRPGDWPRP, the “shrunken log2 fold change” value was determined as 0.432.

RRIRFRPPRLPRPRPRPQWSPRP: the “shrunken log2 fold change” value is -0.485.

In the case of RRIRTRPPRLPRPRPRPPADPRP, the “shrunken log2 fold change” value worked out at 0.217.

Regarding RRIRQRPPRLPRPRPRPGESPRP, the “shrunken log2 fold change” value amounted to 0.0357.

On to RRIRFRPPRLPRPRPRPLHFPRP, for which the “shrunken log2 fold change” value is 0.0202.

Consider RRIRWRPPRLPRPRPRPCEGPRP, for which the “shrunken log2 fold change” value came to 0.00476.

Regarding RRIRVRPPRLPRPRPRPESDPRP, the “shrunken log2 fold change” value is 0.0889.

With RRIRSRPPRLPRPRPRPGLQPRP, the “shrunken log2 fold change” value amounted to 0.652.

In the case of RRIRERPPRLPRPRPRPCCVPRP, the “shrunken log2 fold change” value was -0.743.

RRIRDRPPRLPRPRPRPAHIPRP: the “shrunken log2 fold change” value is -0.0312.

Turning to RRIRKRPPRLPRPRPRPNALPRP, the “shrunken log2 fold change” value worked out at 0.301.

RRIRVRPPRLPRPRPRPWCQPRP: the “shrunken log2 fold change” value was -0.187.

On to RRIRMRPPRLPRPRPRPFFFPRP, for which the “shrunken log2 fold change” value worked out at 0.365.

On to RRIRDRPPRLPRPRPRPKMEPRP, for which the “shrunken log2 fold change” value was -0.00783.

With RRIRYRPPRLPRPRPRPNAPPRP, the “shrunken log2 fold change” value is -0.228.

In the case of RRIRCRPPRLPRPRPRPGWQPRP, the “shrunken log2 fold change” value was determined as 0.331.

For the sequence RRIRHRPPRLPRPRPRPSGVPRP, the “shrunken log2 fold change” value was -0.115.

RRIRHRPPRLPRPRPRPRISPRP: the “shrunken log2 fold change” value was determined as 0.0117.

Consider RRIRNRPPRLPRPRPRPSILPRP, for which the “shrunken log2 fold change” value was -0.151.

As for RRIRCRPPRLPRPRPRPAVLPRP, the “shrunken log2 fold change” value is -0.218.

RRIRTRPPRLPRPRPRPNTGPRP: the “shrunken log2 fold change” value was -0.388.

For RRIRLRPPRLPRPRPRPKLSPRP, the “shrunken log2 fold change” value is 0.0605.

Take RRIRQRPPRLPRPRPRPFCEPRP: the “shrunken log2 fold change” value was -0.0314.

RRIRMRPPRLPRPRPRPWRRPRP: the “shrunken log2 fold change” value was 0.22.

With RRIRERPPRLPRPRPRPHMDPRP, the “shrunken log2 fold change” value is -1.21.

Regarding RRIRFRPPRLPRPRPRPNGNPRP, the “shrunken log2 fold change” value is -0.377.

Consider RRIRVRPPRLPRPRPRPQDPPRP, for which the “shrunken log2 fold change” value amounted to 0.0381.

RRIRERPPRLPRPRPRPTSVPRP: the “shrunken log2 fold change” value was -0.028.

Turning to RRIRARPPRLPRPRPRPWRRPRP, the “shrunken log2 fold change” value came to 0.267.

RRIRERPPRLPRPRPRPQRVPRP: the “shrunken log2 fold change” value was -0.167.

For RRIRNRPPRLPRPRPRPMNRPRP, the “shrunken log2 fold change” value was -0.00285.

For RRIRVRPPRLPRPRPRPTGCPRP, the “shrunken log2 fold change” value was 0.0918.

Consider RRIRARPPRLPRPRPRPGKHPRP, for which the “shrunken log2 fold change” value was 0.089.

Regarding RRIRQRPPRLPRPRPRPFFSPRP, the “shrunken log2 fold change” value was -0.313.

Regarding RRIRHRPPRLPRPRPRPPRHPRP, the “shrunken log2 fold change” value was 0.231.

For the sequence RRIRHRPPRLPRPRPRPGAQPRP, the “shrunken log2 fold change” value amounted to 0.187.

In the case of RRIRMRPPRLPRPRPRPQCYPRP, the “shrunken log2 fold change” value is -0.0225.

RRIRMRPPRLPRPRPRPAIEPRP: the “shrunken log2 fold change” value is 0.112.

For the sequence RRIRKRPPRLPRPRPRPELDPRP, the “shrunken log2 fold change” value was found to be 0.121.

Regarding RRIRYRPPRLPRPRPRPARAPRP, the “shrunken log2 fold change” value amounted to 0.524.

As for RRIRQRPPRLPRPRPRPPDWPRP, the “shrunken log2 fold change” value was 0.34.

For RRIRHRPPRLPRPRPRPSGCPRP, the “shrunken log2 fold change” value is -0.162.

Take RRIRSRPPRLPRPRPRPCGSPRP: the “shrunken log2 fold change” value was determined as 0.102.

Take RRIRPRPPRLPRPRPRPHSTPRP: the “shrunken log2 fold change” value was -0.583.

In the case of RRIRMRPPRLPRPRPRPFGYPRP, the “shrunken log2 fold change” value was found to be 0.067.

Turning to RRIRGRPPRLPRPRPRPDGYPRP, the “shrunken log2 fold change” value was found to be 0.222.

On to RRIRTRPPRLPRPRPRPHEAPRP, for which the “shrunken log2 fold change” value is -0.0062.

With RRIRVRPPRLPRPRPRPRRPPRP, the “shrunken log2 fold change” value is 0.34.

As to RRIRARPPRLPRPRPRPFEHPRP, the “shrunken log2 fold change” value stood at 0.172.

Take RRIRYRPPRLPRPRPRPMERPRP: the “shrunken log2 fold change” value stood at 0.0776.

As for RRIRDRPPRLPRPRPRPHVDPRP, the “shrunken log2 fold change” value came out at 0.07.

RRIRTRPPRLPRPRPRPKRYPRP: the “shrunken log2 fold change” value was -0.154.

As to RRIRSRPPRLPRPRPRPVTFPRP, the “shrunken log2 fold change” value was -0.21.

For RRIRDRPPRLPRPRPRPFTLPRP, the “shrunken log2 fold change” value was -0.0329.

Turning to RRIRLRPPRLPRPRPRPEKQPRP, the “shrunken log2 fold change” value amounted to 0.0884.

Turning to RRIRKRPPRLPRPRPRPANNPRP, the “shrunken log2 fold change” value amounted to 0.0823.

As to RRIRSRPPRLPRPRPRPVKDPRP, the “shrunken log2 fold change” value was -0.315.

In the case of RRIRYRPPRLPRPRPRPTNRPRP, the “shrunken log2 fold change” value was -0.363.

On to RRIRLRPPRLPRPRPRPTSVPRP, for which the “shrunken log2 fold change” value was -0.0387.

As to RRIRPRPPRLPRPRPRPEVWPRP, the “shrunken log2 fold change” value amounted to 0.5.

As to RRIRDRPPRLPRPRPRPEGMPRP, the “shrunken log2 fold change” value stood at 0.896.

For RRIRHRPPRLPRPRPRPCIAPRP, the “shrunken log2 fold change” value was -0.46.

In the case of RRIRARPPRLPRPRPRPPGDPRP, the “shrunken log2 fold change” value amounted to 0.868.

As for RRIRQRPPRLPRPRPRPMMSPRP, the “shrunken log2 fold change” value is -0.0325.

Regarding RRIRLRPPRLPRPRPRPSFWPRP, the “shrunken log2 fold change” value worked out at 0.0795.

As for RRIRQRPPRLPRPRPRPWMTPRP, the “shrunken log2 fold change” value is -0.00186.

Take RRIRHRPPRLPRPRPRPSDYPRP: the “shrunken log2 fold change” value is -0.343.

Turning to RRIRYRPPRLPRPRPRPAQMPRP, the “shrunken log2 fold change” value is 0.0755.

RRIRMRPPRLPRPRPRPKGFPRP: the “shrunken log2 fold change” value stood at 0.00502.

For RRIRRRPPRLPRPRPRPFMVPRP, the “shrunken log2 fold change” value was -0.242.

Turning to RRIRLRPPRLPRPRPRPTNTPRP, the “shrunken log2 fold change” value was -0.375.

As to RRIRARPPRLPRPRPRPTKFPRP, the “shrunken log2 fold change” value was found to be 0.0943.

In the case of RRIRRRPPRLPRPRPRPGDAPRP, the “shrunken log2 fold change” value was 0.782.

On to RRIRARPPRLPRPRPRPQVLPRP, for which the “shrunken log2 fold change” value is -0.0334.

With RRIRQRPPRLPRPRPRPRSRPRP, the “shrunken log2 fold change” value worked out at 0.0402.

With RRIRHRPPRLPRPRPRPIVGPRP, the “shrunken log2 fold change” value was -0.476.

In the case of RRIRLRPPRLPRPRPRPVQYPRP, the “shrunken log2 fold change” value was -0.0382.

As to RRIRNRPPRLPRPRPRPEMCPRP, the “shrunken log2 fold change” value was 0.00911.

Turning to RRIRWRPPRLPRPRPRPRNWPRP, the “shrunken log2 fold change” value stood at 0.172.

On to RRIRLRPPRLPRPRPRPIGTPRP, for which the “shrunken log2 fold change” value was -0.0773.

For RRIRPRPPRLPRPRPRPTRRPRP, the “shrunken log2 fold change” value was found to be 0.591.

Turning to RRIRSRPPRLPRPRPRPVAMPRP, the “shrunken log2 fold change” value turned out to be 0.0384.

Consider RRIRYRPPRLPRPRPRPLTNPRP, for which the “shrunken log2 fold change” value is -0.206.

For RRIRARPPRLPRPRPRPMFYPRP, the “shrunken log2 fold change” value is -0.282.

Regarding RRIRIRPPRLPRPRPRPDAWPRP, the “shrunken log2 fold change” value was determined as 0.32.

Regarding RRIRLRPPRLPRPRPRPIYHPRP, the “shrunken log2 fold change” value is -0.6.

Take RRIRFRPPRLPRPRPRPHYSPRP: the “shrunken log2 fold change” value is -0.65.

On to RRIRNRPPRLPRPRPRPDIPPRP, for which the “shrunken log2 fold change” value is -0.588.

Turning to RRIRTRPPRLPRPRPRPKNIPRP, the “shrunken log2 fold change” value was -0.627.

Take RRIRGRPPRLPRPRPRPNTDPRP: the “shrunken log2 fold change” value was found to be 0.197.

In the case of RRIRSRPPRLPRPRPRPNQGPRP, the “shrunken log2 fold change” value amounted to 0.153.

Turning to RRIRVRPPRLPRPRPRPIFRPRP, the “shrunken log2 fold change” value came to 0.0423.

RRIRGRPPRLPRPRPRPRQHPRP: the “shrunken log2 fold change” value was 0.305.

Regarding RRIRHRPPRLPRPRPRPQENPRP, the “shrunken log2 fold change” value is -0.245.

In the case of RRIRKRPPRLPRPRPRPADDPRP, the “shrunken log2 fold change” value came to 0.799.

For RRIRCRPPRLPRPRPRPRSIPRP, the “shrunken log2 fold change” value was -0.0603.

Regarding RRIRVRPPRLPRPRPRPKTLPRP, the “shrunken log2 fold change” value was -0.0985.

For RRIRIRPPRLPRPRPRPATPPRP, the “shrunken log2 fold change” value stood at 0.0979.

In the case of RRIRGRPPRLPRPRPRPSMNPRP, the “shrunken log2 fold change” value is 0.156.

As for RRIRKRPPRLPRPRPRPYIMPRP, the “shrunken log2 fold change” value was -0.153.

RRIRWRPPRLPRPRPRPILFPRP: the “shrunken log2 fold change” value was -0.456.

As for RRIRARPPRLPRPRPRPFCMPRP, the “shrunken log2 fold change” value came out at 0.0299.

As to RRIRERPPRLPRPRPRPRCEPRP, the “shrunken log2 fold change” value was 0.0736.

For RRIRVRPPRLPRPRPRPLIVPRP, the “shrunken log2 fold change” value was -0.335.

Take RRIRVRPPRLPRPRPRPTFGPRP: the “shrunken log2 fold change” value was found to be 0.215.

As to RRIRGRPPRLPRPRPRPGMEPRP, the “shrunken log2 fold change” value is 1.54.

Turning to RRIRTRPPRLPRPRPRPWHAPRP, the “shrunken log2 fold change” value turned out to be 0.093.

Take RRIRRRPPRLPRPRPRPKRDPRP: the “shrunken log2 fold change” value is 0.5.

Take RRIRYRPPRLPRPRPRPIDHPRP: the “shrunken log2 fold change” value was -0.0413.

Turning to RRIRHRPPRLPRPRPRPESYPRP, the “shrunken log2 fold change” value was -0.012.

As for RRIRMRPPRLPRPRPRPNHVPRP, the “shrunken log2 fold change” value is -0.409.

Turning to RRIRQRPPRLPRPRPRPLKIPRP, the “shrunken log2 fold change” value was -0.141.

Turning to RRIRTRPPRLPRPRPRPDTEPRP, the “shrunken log2 fold change” value is -0.072.
